Data published in the supplement of paper PMC7125110.
± gives the standard error. This sample holds only a part of the variants without activity.

B1: glmS ribozyme (parent)
chain: AUAAAAGCGCCAGAACUACAGAAAUGUAGUUGACGAGGAGGAGGUUUAUCGAAUUUUCGGCGGAUGCCUCCAAA

Variants of: B1
Assay: self-cleavage kobs at 2500 uM GlcN6P; higher = faster cleavage; RNA array
Conditions: with glucosamine-6-phosphate
Procedure, shortened: (§1)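 Tracking of barcoded ribozyme variants used a hybridised Cy3 probe at 37 °C, after in situ transcription by E. coli RNA polymerase on sequenced MiSeq chips. The flowed solution held 40 μM to 10 mM glucosamine-6-phosphate in HEPES/KCl/Mg(OAc)2 buffer, and imaging ran over ~14 h. kobs was taken from exponential decay fits of normalised per-tile medians, and kcat and KM from weighted Michaelis–Menten fits.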

Variant | self-cleavage kobs at 2500 uM GlcN6P [s⁻¹]
AUAAAAACGCCAGAACUACAGAAAUGUAGUUGACGAGGAGGUGGUUUAUCGAAUUUUCGGCGGAUGCCUCCAAA | < 1e-05
AUAAAAGCGCCAGAAGUACAGAAAUGUAGUUGACGAGGAGGAGGUUUAUCAAAUUUUCGACGAAUGCCUACAAA | 4.28e-05 ± 1.9e-05
AUAAAAACGCCAGAACUACAGAAAUGUAGUUGACGAGGAGGAGGUUUAACGCAUUUUCGGCGGAUGCCUCCAAA | < 1e-05
AUAAAAGCGACAGAACUACAGAAAUGUAGUUGACGAGGAGGAGGUUUAUCGAAUUUUCCGCGGAUAACUCCAAA | < 1e-05
AUAAAAGCGCCAGAACUACAGAAAUGUAGUUCACGAGGAGGAGGUUUAUGGAAUAGCCGGCGGAUGCCUCCAAA | 0.000162 ± 5.8e-05
AUAAAAGCGCCAGUACUACAGAAAUGUAGUUGACGUGGAGGAGGUUUAUCGAAUUUUCGGCGGAUGCCUCUAAA | < 1e-05
AUAAAAGCGCCAGGACUACAGAAAUGUAGUUGACGAGGAGGAGGUUUAUCGAAUUUUCGGCGGAUGGAUCCAAA | 2.78e-05 ± 1.3e-05
AUAAAAGCGCCAGAAAUACAGAAAUGUAGUUGACGGGGAGGAGGUUUAUCGAAUUUUCGGCGGAGGCCUCCAAA | < 1e-05
AUAAAAGCACCAGAUCUACAGAAAUGUAGUUGACGAGGAGGAGGUUUGUCGAAUUUUCGGCGGAUGCCUGUAAA | < 1e-05
AUAAAAGCGCCAGAACUACAGAAAUGUAGUUGACGAGGAGAAGGUUUAUCGAAUAUCCGGCGGUUGCCUCCAAA | < 1e-05
AUAAAAGCGCCAGAACUACAGAAAUGUAGUUGACGAGGAGGAGGUUUAUAGAGUUUUGGGCGGAUGCAUCCAAA | 0.000108 ± 3.9e-05
AUAAAAGCGCCAAAACUACAGAAAUGUAGUUGAGAAGGAGAAGGUUUAUCGAAUUUUCGGCGGAAUCCUCCAAA | < 1e-05
AUAAAAGCGUCAGAACUACAGAAAUGUAGUUGUCGAGGACGAGGUUUAUUGAAUUUUCGGCGGAUGCCUCCAAA | < 1e-05
AUAAAAGCGCCAGAACUACAGAAAUGUAGUUGACGAGGAGGAGGUGUUUCGAAUUUUCUGCGGAUGCCCCCAAA | < 1e-05
AUAAAAGCGCCAGGACUACAGAAAUGUAGUUGACGAGGAGGAGGUCUCUCGAAUUUUCGGCGGAUGCUUCCAAA | 8.06e-05 ± 3.1e-05
AUAAAAGCGCCAGAACUACAGAAAUGUAGUUGACGAGGAGGAGGUUUGUCGAAGUUUCGGCGGAUGCCUUCAAA | 0.000276 ± 7.7e-05
AUAAAAGCGCCAGAACUACAGAAAUGUAGUUGCCGUGCAGGAGGUUUAUCGAAUUUUCGGCGGAUGCCUCCAAA | < 1e-05

Variant | self-cleavage kobs at 2500 uM GlcN6P [s⁻¹]
AUAAAAGCGCCAGAACUACAGAAAUGUAGUAGACGAGGAGGAGGUUUAGCGAAUUUUCGGCGGAUGCCUCCAAA | 0.000183 ± 3.1e-05
AUAAAAGCGCCAGAACUACAGAAAUGUAGUUGACGAGGAGGAGGCUUAUCGAAUUUUCGACGCAUGCCUCCAAA | < 1e-05
AUAAAAGCGACAGAACUACAGAAAUGUAGUUGACGAGGAGGAGGGUUAUCGAAGUUUCGGCGGAUGCCUCCAAA | < 1e-05
AUAAAAGCGCCAGAACUACAGAAAUGUAGUUGACGAGGAUGAGGUUUAACGAAUUUUCGGCGGUUGCCUUCAAA | < 1e-05
AUAAAAGCGCCAGAACUACAGAAAUGUAGUUGACGAGGAGGAGGUCUAUCGAAUUUUCGCUGGAUGCCUCCAAA | < 1e-05
AUAAAAGCGCCAGAACUACAGAAAUGUAGUAGUCGAGGAGGAGGUUUAUCGAAUUGUCGGCGGAGGCAUCCAAA | < 1e-05
AUAAAAGCGCCUGAACUACAGAAAUGUAGUUGACGAUAAGGAGGUUUAUCGAAUUUUCGGCGGAUGCCUCCAAA | < 1e-05
AUAAAAGCGCCAGAACUACAGAAAUGUAUAUGGCGAUGAGGAGGUUUAUCGAAUUUUCGGCGGAUGCCUCCAAA | < 1e-05
AUAAAAGCGCCAGAAUUACAGAAAUGUAGUUGACGAUGAGGGGGUUUAUCUAAUUUUCGGCGGAUGCCUCCAAA | < 1e-05
AUAAAAGCGCCUGAACUACAGAAAUGUAGUGGACGAGGAGGAGGUUUAUCGAAUUUUCGGCGGAUGCCACCAAA | 0.000111 ± 4.9e-05
AUAAAAGCGCCAGAACUACAGAAAUGUAGUUGUCGAGGAGGAGGUGUGUCGAAUUUUCGGCGGCUGCCUUCAAA | < 1e-05
AUAAAAGCGCCAGAACUACAGAAAUGUAGUUGACGAGGAGGAGGUUUAUCGAAUUUCCGGCGGAUACCUCCAAA | 4.71e-05 ± 1.3e-05
AUAAAAGCGCCAGAACUACAGAAAUGUAGUUGGCGAGGAGGAGGUUUAUCGAAUUUUCCGCGGAUGCUUCCAAA | < 1e-05
AUAAAAGCGCCAGAACUACAGAAAUGUAAUUGACGAGGAGUAGGUUUAUCGAAUUUUCGGCCGAUGCCUCCAAA | < 1e-05
AUAAAAGCGCCAGAACUACAGAAAUGUAGUCGACGAGAAAGAGGUUUAUCGAAUUUUCGGCGGAUGCCUCCAAA | < 1e-05
AUAAAAGCGCCAGAAGUACAGAAAUGUAGUUGACGAGGAGUAGGUUUAUGGAAUUUUCGGCGGAUGCCUCCAAA | < 1e-05

Variants of: B1
Assay: self-cleavage kobs at 10000 uM GlcN6P; higher = faster cleavage; RNA array
Conditions: with glucosamine-6-phosphate
Procedure, shortened: as §1

Variant | self-cleavage kobs at 10000 uM GlcN6P [s⁻¹]
AUAAAAACGCCAGAACUACAGAAAUGUAGUUGACGAGGAGGUGGUUUAUCGAAUUUUCGGCGGAUGCCUCCAAA | < 1e-05
AUAAAAGCGCCAGAACUACAGAAAUGUAGUAGACGAGGAGGAGGUUUAGCGAAUUUUCGGCGGAUGCCUCCAAA | 0.000277 ± 4.5e-05
AUAAAAGCGCCAGAACUACAGAAAUGUAGUUGACGAGGAGGAGGUCUAUCGAAUUUUCGCUGGAUGCCUCCAAA | < 1e-05
AUAAAAGCGCCAGAACUACAGAAAUGUAGUUGACGAGGAGGAGGUUUAUCGAAUUUCCGGCGGAUACCUCCAAA | 0.000102 ± 1.5e-05
AUAAAAGCGCCAGAAGUACAGAAAUGUAGUUGACGAGGAGUAGGUUUAUGGAAUUUUCGGCGGAUGCCUCCAAA | < 1e-05
